Laboratory results: patent US20030092885A1, “Solubility and stability enhancement tag for structural and ligand binding studies of proteins” (President and Fellows of Harvard College, priority 2001, published 2003)

What was measured:
[1] = Solubility of target protein or complex with and without the small solubility and stability enhancing tag; assay type: physicochemical
[2] = Solution stability (time until the sample precipitates) with and without the tag; assay type: physicochemical; conditions: FAIM, 25° C.

B1: DFF45 NTD: N-terminal domain of human DNA fragmentation factor 45, unfolded when free (protein, UniProt O00273 1-116, looked up, fragment)
chain: MEVTGDAGVPESGEIRTLKPCLLRRNYSREQHGVAASCLEDLRSKACDILAIDKSLTPVTLVLAEDGTIVDDDDYFLCLPSNTKFVALASNEKWAYNNSDGGTAWISQESFDVDET
solubility ([1]; FIG. 4 legend): 200 µM

B2: FAIM protein: 20 kDa apoptosis inhibitor in b cells, untagged (protein, UniProt Q9NVQ4 2-179, looked up)
Fas apoptotic inhibitory …: TDLVAVWDVALSDGVHKIEFEHGTTSGKRVVYVDGKEEIRKEWMFKLVGKETFYVGAAKTKATINIDAISGFAYEYTLEINGKSLKKYMEDRSKTTNTWVLHMDGENFRIVLEKDAMDVWCNGKKLETAGEFVDDGTETHFSIGNHDCYIKAVSSGKRKEGIIHTLIVDNREIPEIAS
can be concentrated up to ([1]; FAIM): up to 1 mM | time until precipitation from solution / stable in solution [2]: one week
